From publication PMC11489326, “Characterization of lignin-degrading enzyme PmdC, which catalyzes a key step in the synthesis of polymer precursor 2-pyrone-4,6-dicarboxylic acid” (The Journal of Biological Chemistry, 2024) come the findings set out here.

Substrate in this series: O=C(O)c1ccc(O)c(O)c1
Kind of series: purified protein. In kind it is biochemical, Comamonas testosteroni. The note with it: pH 7.5, room temperature, anaerobically purified enzyme, dithionite-treated, O2 co-substrate.

B1: PmdAB (protocatechuate 4,5-dioxygenase) (Comamonas testosteroni) (protein)
chain 1: MARITASVFTSHVPAIGAAMDMGKTQEAYWAPLFKGYDFSRQWMKDNKPDVIFLVYNDHATAFSLDCIPTFAIGTAAEFQPADEGWGPRPVPKVVGHPDLASHIAQSVIQQDFDLTIVNKMDVDHGLTVPLSLMCGEQDPKTGSWPCPVIPFAVNVVQYPVPTGQRCFNLGRAIRKAVESYDQDINVHIWGTGGMSHQLQGARAGLINKEWDNQFLDLLVENPHGLAQMPHIDYVREAGSEGIELVMWLIARGAMSDVDGPAPLPKVAHRFYHVPASNTAVGHLILENQ
chain 2: MALEKPYLDVPGTIIFDAEQSRKGYWLNQFCMSLMKAENRERFRADERAYLDEWAMTEEQKQAVLARDLNWCMRTGGNIYFLAKIGATDGKSFQQMAGSMTGMTEEEYRAMMMGGGRSAEGNRYVGEDGDAQAHHQPQGSAGNQNKEGN
notes: full-length, codon-optimized, N-terminal His6-PmdA co-expressed with PmdB in E. coli BL21(DE3); purified anaerobically; alpha2beta2 heterotetramer, nonheme Fe(II)
As for B1, the Michaelis-Menten constant (Km) was determined as 33.00 ± 12.0 µM, the kcat amounted to 107 ± 7.5 s⁻¹ and the kcat/Km was 3.3e+06 M⁻¹ s⁻¹.
